# B1: N-terminally Flag-tagged Smad7 (F-Smad7) (other, not shown: small tags and cut ends)
# chain: MFRTKRSALVRRLWRSRAPGGEDEEEGVGGGGGGGELRGEGATDGRAYGAGGGGAGRAGCCLGKAVRGAKGHHHPHPPTSGAGAAGGAEADLKALTHSVLKKLKERQLELLLQAVESRGGTRTACLLLPGRLDCRLGPGAPASAQPAQPPSSYSLPLLLCKVFRWPDLRHSSEVKRLCCCESYGKINPELVCCNPHHLSRLCELESPPPPYSRYPMDFLKPTAGCPDAVPSSAETGGTNYLAPGGLSDSQLLLEPGDRSHWCVVAYWEEKTRVGRLYCVQEPSLDIFYDLPQGNGFCLGQLNSDNKSQLVQKVRSKIGCGIQLTREVDGVWVYNRSSYPIFIKSATLDNPDSRTLLVHKVFPGFSIKAFDYEKAYSLQRPNDHEFMQQPWTGFTVQISFVKGWGQCYTRQFISSCPCWLEVIFNSR
# notes: Expressed by transfection in COS cells and immunoprecipitated with Flag antibody; also called F-mSmad7; mSmad7
# Tests used:
# TβR-II alone = molecular target: T1, TβR-II alone (UniProt P37173 23-567, limits assumed); test: co-immunoprecipitation with Flag antiserum of 125I-TGF-β1 affinity-labeled receptors, COS cells
# T1 construct: whole, on cells
# T1 sequence (P37173 23-567 limits assumed): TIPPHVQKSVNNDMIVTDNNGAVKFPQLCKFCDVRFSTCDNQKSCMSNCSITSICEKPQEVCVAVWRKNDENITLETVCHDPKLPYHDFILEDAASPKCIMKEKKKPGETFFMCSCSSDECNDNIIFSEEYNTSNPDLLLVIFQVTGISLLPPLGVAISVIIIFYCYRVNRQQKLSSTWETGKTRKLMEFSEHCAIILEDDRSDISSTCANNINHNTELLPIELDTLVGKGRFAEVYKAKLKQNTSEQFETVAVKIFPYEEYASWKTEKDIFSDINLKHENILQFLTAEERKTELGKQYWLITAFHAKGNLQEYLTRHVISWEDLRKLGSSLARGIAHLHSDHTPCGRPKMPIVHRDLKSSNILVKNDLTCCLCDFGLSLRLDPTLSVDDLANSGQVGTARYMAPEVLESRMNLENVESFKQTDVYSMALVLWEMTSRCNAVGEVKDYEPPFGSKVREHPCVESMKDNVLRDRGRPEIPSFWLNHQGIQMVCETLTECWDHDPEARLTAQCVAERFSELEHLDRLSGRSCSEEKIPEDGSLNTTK
# Procedure: (§1) To obtain insight into the mechanism by which Smad7 exerts its negative role in signaling by TGF-β family members, it was tested whether Smad7, like Smad2 and Smad3 (Zhang et al., *Nature* 383:168–172, 1996; Macías-Silva et al., *Cell* 87:1215–1224, 1996; Nakao et al., 1997), can associate with the TGF-β receptor complex. COS cells transfected with N-terminally Flag-tagged Smad7 in combination with TβR-II (wild-type, WT, or kinase-deficient mutant, KD) and TβR-I (wild-type or kinase deficient mutant) were affinity labeled with ^125I-TGF-β1, and cell lysates were subjected to immunoprecipitation with Flag antiserum against the Flag-epitope in Smad7. Immunoprecipitates were analyzed by SDS-PAGE and FujiX Bio-Imager. Expression of receptors and F-Smad7 after transfection was determined by immunoprecipitation with VPN antibody against TβR-I or DRL antibody against TβR-II on aliquots of cell lysates, and by immunoprecipitation with Flag antibody on lysates [^35S]methionine/cysteine labeled transfected cells. […] In contrast, Smad2 and Smad3 interact stably only with complex of […] (Macías-Silva et al., 1996; Nakao et al., 1997). No interaction was observed between Smad7 and a heteromeric complex of kinase-deficient TβR-II and TβR-I, or with TβR-II alone (FIG. 3). […]
# [1] = molecular target: T2, heteromeric complex of kinase-deficient TβR-II and TβR-I (UniProt P36897 34-503; P37173 23-567); test: as above
# T2 construct: whole, on cells; also called TβR-II KD with TβR-I
# T2 sequence (P36897 34-503 limits assumed, chain 1 of 2): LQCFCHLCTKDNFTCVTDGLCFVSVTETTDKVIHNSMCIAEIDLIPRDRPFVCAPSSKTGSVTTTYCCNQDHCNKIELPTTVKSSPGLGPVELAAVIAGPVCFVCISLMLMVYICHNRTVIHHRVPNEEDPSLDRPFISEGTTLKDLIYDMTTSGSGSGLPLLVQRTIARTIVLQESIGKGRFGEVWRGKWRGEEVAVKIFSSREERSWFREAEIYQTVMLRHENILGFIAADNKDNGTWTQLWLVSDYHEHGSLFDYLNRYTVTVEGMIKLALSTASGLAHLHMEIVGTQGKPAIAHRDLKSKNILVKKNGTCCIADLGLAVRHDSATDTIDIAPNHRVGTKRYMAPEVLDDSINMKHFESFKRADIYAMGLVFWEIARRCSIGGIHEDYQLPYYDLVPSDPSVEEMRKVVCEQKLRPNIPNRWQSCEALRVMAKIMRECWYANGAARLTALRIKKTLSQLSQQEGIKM
# T2 sequence (P37173 23-567 K277R limits assumed, chain 2 of 2): as the sequence (P37173 23-567 limits assumed) above, with K255R counted along it
# Procedure: as §1
binder,measurement,setting,value
B1,binding result,TβR-II alone,no binding
same,binding result,[1],no binding
